Data: IntAct's records for PubMed 20696398

B1: Vacuolar protein sorting-associated protein VTA1 (Saccharomyces cerevisiae), Q06263 (parent)
chain: MASNAARVVATAKDFDKVGLGIIGYYLQLYAVELILSEEDRSQEMTALATELLDTIEAFKKEIGGESEAEDSDKSLHVMNTLIHDQEKAKIYMLNFTMSLYNEKLKQLKDGPWDVMLKRSLWCCIDLFSCILHLWKENISETSTNSLQKRIKYCKIYLSKLAKGEIGSSDEKTLDYADFADDSEEIKDEDVDHQTSDLENNNNDKVEGLAPKDQTTSYEPVDEVPEFIDDADSVNEEEQTVDKNEDAITKDEQQVVKKEVDLTRPSAPSEPAAAEHKSYTKDELTKIMDRASKIEQIQKLAKYAISALNYEDLPTAKDELTKALDLLNSI
partner: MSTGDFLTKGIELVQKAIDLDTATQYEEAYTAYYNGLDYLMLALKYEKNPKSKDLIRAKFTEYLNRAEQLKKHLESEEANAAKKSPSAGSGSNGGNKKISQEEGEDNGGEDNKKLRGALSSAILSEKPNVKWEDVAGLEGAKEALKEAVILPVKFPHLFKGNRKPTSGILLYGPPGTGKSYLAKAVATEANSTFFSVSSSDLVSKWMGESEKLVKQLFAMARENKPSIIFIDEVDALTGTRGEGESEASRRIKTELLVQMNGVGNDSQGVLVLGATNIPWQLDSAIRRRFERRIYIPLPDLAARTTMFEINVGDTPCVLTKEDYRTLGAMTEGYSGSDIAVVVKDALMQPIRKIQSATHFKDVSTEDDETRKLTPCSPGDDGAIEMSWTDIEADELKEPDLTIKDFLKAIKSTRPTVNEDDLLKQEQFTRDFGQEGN
B2: Vacuolar protein sorting-associated protein 4 (Saccharomyces cerevisiae), P52917 (parent)
chain: B1 partner
partner: B1 chain

Variants of: B1
Details: with vps4_yeast VPS4, P52917

| Variant | effect of a mutation on the interaction |
| --- | --- |
| MASNAARVVATAKDFDKVGLGIIGYYLQLYAVELILSEEDRSQEMTALATELLDTIEAFKKEIGGESEAEDSDKSLHVMNTLIHDQEKAKIYMLNFTMSLYNEKLKQLKDGPWDVMLKRSLWCCIDLFSCILHLWKENISETSTNSLQKRIKYCKIYLSKLAKGEIGSSDEKTLDYADFADDSEEIKDEDVDHQTSDLENNNNDKVEGLAPKDQTTSYEPVDEVPEFIDDADSVNEEEQTVDKNEDAITKDEQQVVKKEVDLTRPSAPSEPAAAEHKSYTKDELTKIMDRASKIEQIQKLAKAAISALNYEDLPTAKDELTKALDLLNSI [Y303A] | disrupting interaction |
| MASNAARVVATAKDFDKVGLGIIGYYLQLYAVELILSEEDRSQEMTALATELLDTIEAFKKEIGGESEAEDSDKSLHVMNTLIHDQEKAKIYMLNFTMSLYNEKLKQLKDGPWDVMLKRSLWCCIDLFSCILHLWKENISETSTNSLQKRIKYCKIYLSKLAKGEIGSSDEKTLDYADFADDSEEIKDEDVDHQTSDLENNNNDKVEGLAPKDQTTSYEPVDEVPEFIDDADSVNEEEQTVDKNEDAITKDEQQVVKKEVDLTRPSAPSEPAAAEHKSYTKDELTKIMDRASKIEQIQKLAKYAIRALNYEDLPTAKDELTKALDLLNSI [S306R] | decreasing interaction |
| MASNAARVVATAKDFDKVGLGIIGYYLQLYAVELILSEEDRSQEMTALATELLDTIEAFKKEIGGESEAEDSDKSLHVMNTLIHDQEKAKIYMLNFTMSLYNEKLKQLKDGPWDVMLKRSLWCCIDLFSCILHLWKENISETSTNSLQKRIKYCKIYLSKLAKGEIGSSDEKTLDYADFADDSEEIKDEDVDHQTSDLENNNNDKVEGLAPKDQTTSYEPVDEVPEFIDDADSVNEEEQTVDKNEDAITKDEQQVVKKEVDLTRPSAPSEPAAAEHKSYTKDELTKIMDRASKIEQIQKLAKYAISDLNYEDLPTAKDELTKALDLLNSI [A307D] | disrupting interaction |
| MASNAARVVATAKDFDKVGLGIIGYYLQLYAVELILSEEDRSQEMTALATELLDTIEAFKKEIGGESEAEDSDKSLHVMNTLIHDQEKAKIYMLNFTMSLYNEKLKQLKDGPWDVMLKRSLWCCIDLFSCILHLWKENISETSTNSLQKRIKYCKIYLSKLAKGEIGSSDEKTLDYADFADDSEEIKDEDVDHQTSDLENNNNDKVEGLAPKDQTTSYEPVDEVPEFIDDADSVNEEEQTVDKNEDAITKDEQQVVKKEVDLTRPSAPSEPAAAEHKSYTKDELTKIMDRASKIEQIQKLAKYAISALNYEALPTAKDELTKALDLLNSI [D312A] | decreasing interaction |
| MASNAARVVATAKDFDKVGLGIIGYYLQLYAVELILSEEDRSQEMTALATELLDTIEAFKKEIGGESEAEDSDKSLHVMNTLIHDQEKAKIYMLNFTMSLYNEKLKQLKDGPWDVMLKRSLWCCIDLFSCILHLWKENISETSTNSLQKRIKYCKIYLSKLAKGEIGSSDEKTLDYADFADDSEEIKDEDVDHQTSDLENNNNDKVEGLAPKDQTTSYEPVDEVPEFIDDADSVNEEEQTVDKNEDAITKDEQQVVKKEVDLTRPSAPSEPAAAEHKSYTKDELTKIMDRASKIEQIQKLAKYAISALNYEDLPRAKDELTKALDLLNSI [T315R] | decreasing interaction |

Variants of: B2
Details: with vta1_yeast VTA1, Q06263

| Variant | effect of a mutation on the interaction |
| --- | --- |
| MSTGDFLTKGIELVQKAIDLDTATQYEEAYTAYYNGLDYLMLALKYEKNPKSKDLIRAKFTEYLNRAEQLKKHLESEEANAAKKSPSAGSGSNGGNKKISQEEGEDNGGEDNKKLRGALSSAILSEKPNVKWEDVAGLEGAKEALKEAVILPVKFPHLFKGNRKPTSGILLYGPPGTGKSYLAKAVATEANSTFFSVSSSDLVSKWMGESEKLVKQLFAMARENKPSIIFIDEVDALTGTRGEGESEASRRIKTELLVQMNGVGNDSQGVLVLGATNIPWQLDSAIRRRFERRIYIPLPDLAARTTMFEINVGDTPCVLTKEDYRTLGAMTEGYSGSDIAVVVKDALMQPIRKIQSATDFKDVSTEDDETRKLTPCSPGDDGAIEMSWTDIEADELKEPDLTIKDFLKAIKSTRPTVNEDDLLKQEQFTRDFGQEGN [H359D] | decreasing interaction |
